Assay results published in IntAct's records for PubMed 31515488.

B1: Tektin-4 (Homo sapiens), Q8WW24 (parent)
chain: MAQTVPPCELPCKEYDVARNTGAYTSSGLATASFRTSKYLLEEWFQNCYARYHQAFADRDQSERQRHESQQLATETQALAQRTQQDSTRTVGERLQDTHSWKSELQREMEALAAETNLLLAQKQRLERALDATEVPFSITTDNLQCRERREHPNLVRDHVETELLKEAELIRNIQELLKRTIMQAVSQIRLNREHKETCEMDWSDKMEAYNIDETCGRHHSQSTEVQAHPYSTTFQESASTPETRAKFTQDNLCRAQRERLASANLRVLVDCILRDTSEDLRLQCDAVNLAFGRRCEELEDARYKLHHHLHKTLREITDQEHNVAALKQAIKDKEAPLHVAQTRLYLRSHRPNMELCRDAAQFRLLSEVEELNMSLTALREKLLEAEQSLRNLEDIHMSLEKDIAAMTNSLFIDRQKCMAHRTRYPTILQLAGYQ
partner: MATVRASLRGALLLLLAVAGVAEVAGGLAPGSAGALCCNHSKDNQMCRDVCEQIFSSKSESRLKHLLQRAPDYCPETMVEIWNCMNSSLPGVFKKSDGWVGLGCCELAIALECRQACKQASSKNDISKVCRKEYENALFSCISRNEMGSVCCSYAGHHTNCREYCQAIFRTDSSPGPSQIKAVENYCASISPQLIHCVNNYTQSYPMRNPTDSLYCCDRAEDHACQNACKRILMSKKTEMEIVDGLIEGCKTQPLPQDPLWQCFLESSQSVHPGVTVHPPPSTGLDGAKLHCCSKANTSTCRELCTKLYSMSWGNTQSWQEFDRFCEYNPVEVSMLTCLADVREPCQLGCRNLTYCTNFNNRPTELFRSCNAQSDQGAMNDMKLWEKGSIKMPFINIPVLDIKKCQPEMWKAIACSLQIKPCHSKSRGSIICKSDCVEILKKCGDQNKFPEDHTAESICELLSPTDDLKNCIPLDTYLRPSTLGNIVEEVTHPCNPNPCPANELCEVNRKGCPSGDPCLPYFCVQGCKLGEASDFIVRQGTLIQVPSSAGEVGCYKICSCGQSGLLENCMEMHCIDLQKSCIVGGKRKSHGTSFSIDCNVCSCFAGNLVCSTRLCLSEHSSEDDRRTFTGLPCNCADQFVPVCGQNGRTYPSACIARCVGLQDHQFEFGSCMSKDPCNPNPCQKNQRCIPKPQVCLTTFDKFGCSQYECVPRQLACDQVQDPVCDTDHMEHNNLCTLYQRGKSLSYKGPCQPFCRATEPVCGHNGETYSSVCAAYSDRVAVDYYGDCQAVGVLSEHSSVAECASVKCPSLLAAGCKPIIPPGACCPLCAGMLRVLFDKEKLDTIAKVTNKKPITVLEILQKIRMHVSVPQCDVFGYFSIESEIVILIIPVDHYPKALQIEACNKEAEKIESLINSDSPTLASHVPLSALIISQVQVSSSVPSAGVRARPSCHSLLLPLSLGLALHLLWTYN

Variants of: B1
Conditions: with reck_human RECK

Effect of a mutation on the interaction, with no effect:
MAQTVPPCELPCKEYDVARNTGAYTSSGLATASFRTSKYLLEEWFQNCYARYHQAFADRDQSERQRHESQQLATETQALVQRTQQDSTRTVGERLQDTHSWKSELQREMEALAAETNLLLAQKQRLERALDATEVPFSITTDNLQCRERREHPNLVRDHVETELLKEAELIRNIQELLKRTIMQAVSQIRLNREHKETCEMDWSDKMEAYNIDETCGRHHSQSTEVQAHPYSTTFQESASTPETRAKFTQDNLCRAQRERLASANLRVLVDCILRDTSEDLRLQCDAVNLAFGRRCEELEDARYKLHHHLHKTLREITDQEHNVAALKQAIKDKEAPLHVAQTRLYLRSHRPNMELCRDAAQFRLLSEVEELNMSLTALREKLLEAEQSLRNLEDIHMSLEKDIAAMTNSLFIDRQKCMAHRTRYPTILQLAGYQ [A80V]
MAQTVPPCELPCKEYDVARNTGAYTSSGLATASFRTSKYLLEEWFQNCYARYHQAFADRDQSERQRHESQQLATETQALAQRTQQDSTRTVGERLQDTHSWKSELQREMEALAAETNLLLAQKQRLERALDATEVPFSITTDNLQCRERREHPNLVRDHVETELLKEAELIRNIQELLKRTIMQAVSQIRLNREHKETCEMDWSDKMEAYNIDETCGRHHSQSTEVQAHPYSTTFQESASTPETRAKFTQDNLCRAQRERLASANLRVLVDCILRDTSEDLRLQCDAVNLAFGRRCEELEDARYKLHHHLHKTLREITDQEHNVAALKQAIKDKEAPLHVAQTRLYLRSHRPNMELCRDAAQFRLLSEVEELNVSLTALREKLLEAEQSLRNLEDIHMSLEKDIAAMTNSLFIDRQKCMAHRTRYPTILQLAGYQ [M374V]
MAQTVPPCELPCKEYDVARNTGAYTSSGLATASFRTSKYLLEEWFQNCYARYHQAFADRDQSERQRHESQQLATETQALAQRTQQDSTRTVGERLQDTHSWKSELQREMEALAAETNLLLAQKQRLERALDATEVPFSITTDNLQCRERREHPNLVRDHVETELLKEAELIRNIQELLKRTIMQAVSQIRLNREHKETCEMDWSDKMEAYNIDETCGRHHSQSTEVQAHPYSTTFQESASTPETRAKFTQDNLCRAQRERLASANLRVLVDCILRDTSEDLRLQCDAVNLAFGRRCEELEDARYKLHHHLHKTLREITDQEHNVAALKQAIKDKEAPLHVAQTRLYLRSHRPNMELCRDAAQFRLLSEVEELNTSLTALREKLLEAEQSLRNLEDIHMSLEKDIAAMTNSLFIDRQKCMAHRTRYPTILQLAGYQ [M374T]
MAQTVPPCELPCKEYDVARNTGAYTSSGLATASFRTSKYLLEEWFQNCYARYHQAFADRDQSERQRHESQQLATETQALAQCTQQDSTRTVGERLQDTHSWKSELQREMEALAAETNLLLAQKQRLERALDATEVPFSITTDNLQCRERREHPNLVRDHVETELLKEAELIRNIQELLKRTIMQAVSQIRLNREHKETCEMDWSDKMEAYNIDETCGRHHSQSTEVQAHPYSTTFQESASTPETRAKFTQDNLCRAQRERLASANLRVLVDCILRDTSEDLRLQCDAVNLAFGRRCEELEDARYKLHHHLHKTLREITDQEHNVAALKQAIKDKEAPLHVAQTRLYLRSHRPNMELCRDAAQFRLLSEVEELNMSLTALREKLLEAEQSLRNLEDIHMSLEKDIAAMTNSLFIDRQKCMAHRTRYPTILQLAGYQ [R82C]
MAQTVPPCELPCKEYDVARNTGAYTSSGLATASFRTSKYLLEEWFQNCYARYHQAFADRDQSERQRHESQQLATETQALAQRTQQDSTRTVGERLQDTHSWKSELQREMEALAAETNLLLAQKQRLERALDATEVPFSITTDNLQCRERREHPNLVRDHVETELLKEAELIRNIQELLKRTIMQAVSQIRLNREHKETCEMDWSDKMEAYNIDETCGRHHSQSTEVQAHPYSTTFQESASTPETRAKFTQDNLCRAQRERLASANLRVLVDSILRDTSEDLRLQCDAVNLAFGRRCEELEDARYKLHHHLHKTLREITDQEHNVAALKQAIKDKEAPLHVAQTRLYLRSHRPNMELCRDAAQFRLLSEVEELNMSLTALREKLLEAEQSLRNLEDIHMSLEKDIAAMTNSLFIDRQKCMAHRTRYPTILQLAGYQ [C272S]
MAQTVPPCELPCKEYDVARNTGAYTSSGLATASFRTSKYLLEEWFQNCYARYHQAFADRDQSERQRHESQQLATETQALAQRTQQDSTRTVGERLQDTHGWKSELQREMEALAAETNLLLAQKQRLERALDATEVPFSITTDNLQCRERREHPNLVRDHVETELLKEAELIRNIQELLKRTIMQAVSQIRLNREHKETCEMDWSDKMEAYNIDETCGRHHSQSTEVQAHPYSTTFQESASTPETRAKFTQDNLCRAQRERLASANLRVLVDCILRDTSEDLRLQCDAVNLAFGRRCEELEDARYKLHHHLHKTLREITDQEHNVAALKQAIKDKEAPLHVAQTRLYLRSHRPNMELCRDAAQFRLLSEVEELNMSLTALREKLLEAEQSLRNLEDIHMSLEKDIAAMTNSLFIDRQKCMAHRTRYPTILQLAGYQ [S100G]
MAQTVPPCELPCKEYDVARNTGAYTSSGLATASFRTSKYLLEEWFQNCYARYHQAFADRDQSERQRHESQQLATETQALAQRTQQDSTRTVGERLQDTHSWKSELQREMEALAAETNLLLAQKQRLERALDATEVPFSITTDNLQCRERREHPNLVRDHVETELLKEAELIRNIQELLKRTIMQAVSQIRLNREHKETCEMDWSDKMEAYNIDETCGRHHSQSTEVQAHPYSTTFQESASTPETRAKFTQDNLCRAQRERLASANLRVLVDCILRDTSEDLRLQCDAVNLAFGRRCEELEDARYKLHHHLHKTLREITDQEHNVAALKQAIKDKEAPLHVAQTRLYLRSHRPNMELCRDAAQFRLLSEVEELNMSLTALREKLLEAEQSLRNLEDIHMSLEKNIAAMTNSLFIDRQKCMAHRTRYPTILQLAGYQ [D403N]
MAQTVPPCELPCKEYDVARNTGAYTSSGLATASFRTSKYLLEEWFQNCYARYHQAFADRDQSERQRHESQQLATETQALAQRTQQDSTRTVGERLQDTHSWKSELQREMEALAAETNLLLAQKQRLERALDATEVPFSITTDNLQCRERREHPNLVRDHVETELLKEAELIRNIQELLKRTIMQAVSQIRLNREHKETCEMDWSDKMEAYNIDETCGRHHSQSTEVQAHPYSTTFQESASTPETRAKFTQDNLCCAQRERLASANLRVLVDCILRDTSEDLRLQCDAVNLAFGRRCEELEDARYKLHHHLHKTLREITDQEHNVAALKQAIKDKEAPLHVAQTRLYLRSHRPNMELCRDAAQFRLLSEVEELNMSLTALREKLLEAEQSLRNLEDIHMSLEKDIAAMTNSLFIDRQKCMAHRTRYPTILQLAGYQ [R255C]
